Key:
[1] = High performance size-exclusion chromatography (HP-SEC): monomer, HMWS, LMWS; type: physicochemical; conditions: method test
Experimental: The ability of the HP-SEC method to detect changes in the monomer, HMWS and LMWS content was tested with stressed samples. […] Multiple freeze-thaw cycles had no influence on the SEC profile.

[2] = tested on: irritable bowel syndrome (IBS); conditions: clinical trials; cited from earlier work
[3] = tested on: constipation predominant IBS (IBS-C); conditions: cited from earlier work
[4] = in solution; cited from earlier work

Q: Which “overall signal intensity (HP-SEC)” value ([1]; mechanical stress) does the source give for “H-HVEGTFTSDVSSYLEGQAAKEFIAWLVKGRG-OH [ROSE-010]” here?
A: substantial loss

Q: And the SEC profile ([1]; multiple freeze-thaw cycles)?
A: no influence

Q: What about the HMWS content ([1]; one week storage at 40° C.) of the same substance?
A: slight increase

Q: What about the “acute exacerbations of irritable bowel syndrome (IBS)” value [2] of the same substance?
A: reduce acute exacerbations of irritable bowel syndrome (IBS)

Q: What about the colonic transit ([3]; at 48 h with 30 and 100 μg) of the same substance?
A: accelerated colonic transit

Q: And the “gastric emptying of solids” value [3]?
A: delayed gastric emptying of solids

Q: And the noncovalent aggregates [4]?
A: forms noncovalent aggregates in solution

From US11058748B2, “Stable liquid formulations of glucagon-like peptide 1 or analogues thereof” (Rose Pharma LLC, priority 2019, dated 2021)
